First the molecules themselves.
B1: Hammerhead Ribozyme (parent)
chain: ACCGGAUGUGCUUUCCGGUCUGAUGAGUCCGUGAGGACGAAACAG

We go through 57 variants from the RNAGym collection of RNA variant scans (doi:10.7554/elife.80360).

Variants of B1 are the subject of this series. In words: self-cleavage, relative activity (ratio to wild type); higher = more cleavage; co-transcriptional.
For the variant ACCGGAUGUGCUUUCCGGUCUGAUGAGUCCGUUGGGACGAAACAG [G33U A34G], the self-cleavage was determined as 0.752. ACCGGAUGUGCUUUCCGGUCUGAUGAGUCCGUUCGGACGAAACAG [G33U A34C]: the self-cleavage was 0.895.

Take ACCGGAUGUGCUUUCCGGUCUGAUGAGUCCGUUUGGACGAAACAG [G33U A34U]: the self-cleavage worked out at 0.952.

Regarding ACCGGAUGUGCUUUCCGGUCUGAUGAGUCCGUUAGGGCGAAACAG [G33U A37G], the self-cleavage is 1.04. Then ACCGGAUGUGCUUUCCGGUCUGAUGAGUCCGUUAGGCCGAAACAG [G33U A37C], with 1.04. Take ACCGGAUGUGCUUUCCGGUCUGAUGAGUCCGUUAGGUCGAAACAG [G33U A37U]: the self-cleavage was 0.972. The result for ACCGGAUGUGCUUUCCGGUCUGAUGAGUCCGUUAGGACGAAGCAG [G33U A42G] reads 0.312; that for ACCGGAUGUGCUUUCCGGUCUGAUGAGUCCGUUAGGACGAACCAG [G33U A42C], 0.366; that for ACCGGAUGUGCUUUCCGGUCUGAUGAGUCCGUUAGGACGAAUCAG [G33U A42U], 0.371. Then ACCGGAUGUGCUUUCCGGUCUGAUGAGUCCGUCAGGACGAAACAA [G33C G45A], with 0.873; and ACCGGAUGUGCUUUCCGGUCUGAUGAGUCCGUCAGGACGAAACAC [G33C G45C], with 0.46. For the variant ACCGGAUGUGCUUUCCGGUCUGAUGAGUCCGUCAGGACGAAACAU [G33C G45U], the self-cleavage worked out at 0.874.

As to ACCGGAUGUGCUUUCCGGUCUGAUGAGUCCGUCAGGACGAAUCAG [G33C A42U], the self-cleavage is 0.28. The result for ACCGGAUGUGCUUUCCGGUCUGAUGAGUCCGUCAGGACGAAGCAG [G33C A42G] reads 0.346; that for ACCGGAUGUGCUUUCCGGUCUGAUGAGUCCGUCAGGACGAACCAG [G33C A42C], 0.268.

ACCGGAUGUGCUUUCCGGUCUGAUGAGUCCGUCAGGACGAAAUAG [G33C C43U]: the self-cleavage is 0.308. For the variant ACCGGAUGUGCUUUCCGGUCUGAUGAGUCCGUCAGGACGAAAGAG [G33C C43G], the self-cleavage is 0.28.

Consider ACCGGAUGUGCUUUCCGGUCUGAUGAGUCCGUCAGGACGAAAAAG [G33C C43A], for which the self-cleavage is 0.314. The result for ACCGGAUGUGCUUUCCGGUCUGAUGAGUCCGUCAGAACGAAACAG [G33C G36A] reads 0.491; that for ACCGGAUGUGCUUUCCGGUCUGAUGAGUCCGUCAGUACGAAACAG [G33C G36U], 0.338; that for ACCGGAUGUGCUUUCCGGUCUGAUGAGUCCGUCAGCACGAAACAG [G33C G36C], 0.451. ACCGGAUGUGCUUUCCGGUCUGAUGAGUCCGUCAGGACGAUACAG [G33C A41U]: the self-cleavage is 0.459. The result for ACCGGAUGUGCUUUCCGGUCUGAUGAGUCCGUCAGGACGACACAG [G33C A41C] reads 0.432; that for ACCGGAUGUGCUUUCCGGUCUGAUGAGUCCGUCAGGACGAGACAG [G33C A41G], 0.273; that for ACCGGAUGUGCUUUCCGGUCUGAUGAGUCCGUCAGGUCGAAACAG [G33C A37U], 0.565. On to ACCGGAUGUGCUUUCCGGUCUGAUGAGUCCGUCAGGCCGAAACAG [G33C A37C], for which the self-cleavage turned out to be 0.745.

As for ACCGGAUGUGCUUUCCGGUCUGAUGAGUCCGUCAGGGCGAAACAG [G33C A37G], the self-cleavage was found to be 0.619. The result for ACCGGAUGUGCUUUCCGGUCUGAUGAGUCCGUUAGGACGAAACAG [G33U] reads 0.977; that for ACCGGAUGUGCUUUCCGGUCUGAUGAGUCCGUCUGGACGAAACAG [G33C A34U], 1.33; that for ACCGGAUGUGCUUUCCGGUCUGAUGAGUCCGUCGGGACGAAACAG [G33C A34G], 1.19.

As to ACCGGAUGUGCUUUCCGGUCUGAUGAGUCCGUUAGGACGAGACAG [G33U A41G], the self-cleavage stood at 0.354. Consider ACCGGAUGUGCUUUCCGGUCUGAUGAGUCCGUUAGGACGACACAG [G33U A41C], for which the self-cleavage is 0.375. ACCGGAUGUGCUUUCCGGUCUGAUGAGUCCGUUAGGACGAUACAG [G33U A41U]: the self-cleavage was determined as 0.361. The result for ACCGGAUGUGCUUUCCGGUCUGAUGAGUCCGUCAGGACAAAACAG [G33C G39A] reads 0.332; that for ACCGGAUGUGCUUUCCGGUCUGAUGAGUCCGUCAGGACCAAACAG [G33C G39C], 0.375.

For ACCGGAUGUGCUUUCCGGUCUGAUGAGUCCGUCAGGACUAAACAG [G33C G39U], the self-cleavage is 0.364. Then ACCGGAUGUGCUUUCCGGUCUGAUGAGUCCGUUAGGAAGAAACAG [G33U C38A], with 0.824. The result for ACCGGAUGUGCUUUCCGGUCUGAUGAGUCCGUUAGGAUGAAACAG [G33U C38U] reads 0.995. On to ACCGGAUGUGCUUUCCGGUCUGAUGAGUCCGUUAGGAGGAAACAG [G33U C38G], for which the self-cleavage was 0.67. Take ACCGGAUGUGCUUUCCGGUCUGAUGAGUCCGUCAUGACGAAACAG [G33C G35U]: the self-cleavage is 0.795.

As to ACCGGAUGUGCUUUCCGGUCUGAUGAGUCCGUCAAGACGAAACAG [G33C G35A], the self-cleavage turned out to be 0.701. Take ACCGGAUGUGCUUUCCGGUCUGAUGAGUCCGUCACGACGAAACAG [G33C G35C]: the self-cleavage was found to be 0.858.

Consider ACCGGAUGUGCUUUCCGGUCUGAUGAGUCCGUCAGGACGAAACCG [G33C A44C], for which the self-cleavage is 0.533. Consider ACCGGAUGUGCUUUCCGGUCUGAUGAGUCCGUCAGGACGAAACUG [G33C A44U], for which the self-cleavage is 0.512.

Take ACCGGAUGUGCUUUCCGGUCUGAUGAGUCCGUCAGGACGAAACGG [G33C A44G]: the self-cleavage is 1.13. Then ACCGGAUGUGCUUUCCGGUCUGAUGAGUCCGUUAGGACGAAACGG [G33U A44G], with 1.44; and ACCGGAUGUGCUUUCCGGUCUGAUGAGUCCGUUAGGACGAAACUG [G33U A44U], with 0.87; and ACCGGAUGUGCUUUCCGGUCUGAUGAGUCCGUUAGGACGAAACCG [G33U A44C], with 0.596. The result for ACCGGAUGUGCUUUCCGGUCUGAUGAGUCCGUUAGGACGGAACAG [G33U A40G] reads 0.4; that for ACCGGAUGUGCUUUCCGGUCUGAUGAGUCCGUUAGGACGUAACAG [G33U A40U], 0.391; that for ACCGGAUGUGCUUUCCGGUCUGAUGAGUCCGUUAGGACGCAACAG [G33U A40C], 0.726. The result for ACCGGAUGUGCUUUCCGGUCUGAUGAGUCCGUCAGGAGGAAACAG [G33C C38G] reads 0.567. In the case of ACCGGAUGUGCUUUCCGGUCUGAUGAGUCCGUCAGGAAGAAACAG [G33C C38A], the self-cleavage worked out at 0.493. Consider ACCGGAUGUGCUUUCCGGUCUGAUGAGUCCGUCAGGAUGAAACAG [G33C C38U], for which the self-cleavage stood at 1.12. Then ACCGGAUGUGCUUUCCGGUCUGAUGAGUCCGUCAGGACGCAACAG [G33C A40C], with 0.566.

In the case of ACCGGAUGUGCUUUCCGGUCUGAUGAGUCCGUCAGGACGUAACAG [G33C A40U], the self-cleavage amounted to 0.409.

For the variant ACCGGAUGUGCUUUCCGGUCUGAUGAGUCCGUCAGGACGGAACAG [G33C A40G], the self-cleavage was 0.339.
